From paper PMC5892938, “SARNAclust: Semi-automatic detection of RNA protein binding motifs from immunoprecipitation data”
Substitutions are numbered along the chain they refer to.

What was measured:
[1] = target: T1, GST-SBP-SLBP (stem-loop binding protein) (Homo sapiens, UniProt Q14493 1-270); test: EMSA; 320 nM protein, 1 nM RNA, 1 mM Mg2+; EMSA: 10 mM HEPES pH 7.3, 20 mM KCl, 1 mM MgCl2, 20 mM DTT, 5% glycerol, 30 min, 4°C. RBNS: 25 mM Tris pH 7.5, 150 mM KCl, 0.1% Tween, 0.5 mg/mL BSA, 3 mM MgCl2, 1 mM DTT; details: protein: recombinant; tags: N-terminal GST and SBP (pGEX6P1-SBP); label: 3' biotin; hairpin
[2] = target: T1, GST-SBP-SLBP (stem-loop binding protein); test: targeted RNA Bind-n-Seq; RBNS binding buffer: 25 mM Tris pH 7.5, 150 mM KCl, 3 mM MgCl2, 0.1% Tween, 0.5 mg/mL BSA, 1 mM DTT; 27 nM protein, 750 pM RNA pool; temperature not stated; high values mean tight binding; details: protein: recombinant; tags: N-terminal GST and SBP (pGEX6P1-SBP)
Procedure, shortened: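 A designed RNA oligo pool, transcribed with T7, was present at 750 pM and incubated in RBNS binding buffer with 27 nM of GST-SBP-tagged protein that had been expressed in Rosetta(DE3) pLysS E. coli and purified with glutathione. After reverse transcription with a 10-nucleotide barcoded primer and PCR, the bound RNA was sequenced as 200-cycle paired-end reads on a MiSeq. Each sequence's binding signal is the DEseq binary-logarithm fold change in read counts, computed after joining reads with FLASH, aligning with HISAT2 and collapsing by barcode.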

B1: Consensus Loop Only A (CLA) (structured_RNA)
RNA: GGUCACGUCUCAAUCAACUCAUCCCCAGGAGUUUACUCCUGUUUAGUCAACAGCUCGCAGUCAAG
B1: no binding [1].

B2: Consensus Loop Only B (CLB) (structured_RNA)
RNA: B1 RNA with U22A, C24U, U43A, U44A, A45U, G46C
B2: no binding [1].

B3: consensus (structured_RNA)
RNA: GGUCACGUCUCAAUCAACUCCCAAAGGUCCUUCUGAGGACCACCCAUCAACAGCUCGCAGUCAAG
B3 showed a binding signal [2] of 2.83 ± 0.137 log2 fold change.

B4: consensus (structured_RNA)
RNA: B3 RNA with C29U, G35A
In the case of B4, the binding signal [2] is reported as 2.79 ± 0.124 log2 fold change.

B5: consensus (structured_RNA)
RNA: B3 RNA with U28C, C29U, C30U, C33U, G37A, G38A, A39G
For B5, the binding signal [2] was 2.83 ± 0.141 log2 fold change.

B6: consensus (structured_RNA)
RNA: B3 RNA with C29U, C30U, C33U, G35U, G37A, G38A
Work on B6 yielded a binding signal [2] of 2.51 ± 0.271 log2 fold change.

B7: consensus (structured_RNA)
RNA: B3 RNA with U28C, C29U, G38A, A39G
B7 showed a binding signal [2] of 2.5 ± 0.154 log2 fold change.

B8: consensus (structured_RNA)
RNA: B3 RNA with C29U, G35C
B8 showed a binding signal [2] of 2.79 ± 0.125 log2 fold change.

B9: consensus (structured_RNA)
RNA: B3 RNA with C29U, G35U, G38A
Work on B9 yielded a binding signal [2] of 2.63 ± 0.139 log2 fold change.

B10: consensus (structured_RNA)
RNA: B3 RNA with C29U, C33U, G35C, A39G
Work on B10 yielded a binding signal [2] of 2.49 ± 0.153 log2 fold change.

B11: consensus (structured_RNA)
RNA: B3 RNA with C30U, G35U, G37A, A39G
Binder B11 has a binding signal [2] of 2.73 ± 0.134 log2 fold change.

B12: consensus (structured_RNA)
RNA: B3 RNA with C29U, G35C, G38A, A39G
Binder B12 has a binding signal [2] of 2.76 ± 0.132 log2 fold change.

B13: consensus (structured_RNA)
RNA: B3 RNA with U28C, G35A, A39G
B13 was tested, and the binding signal [2] was 3.65 ± 0.165 log2 fold change.

B14: consensus (structured_RNA)
RNA: B3 RNA with C29U, G35A, A39G
B14 was tested, and the binding signal [2] was 2.42 ± 0.134 log2 fold change.

B15: consensus (structured_RNA)
RNA: B3 RNA with U28C, C29U, C30U, G37A, G38A, A39G
B15 gave a binding signal [2] of 2.53 ± 0.134 log2 fold change.

B16: consensus (structured_RNA)
RNA: B3 RNA with C29U, C30U, G35A, G37A, G38A, A39G
For B16, the binding signal [2] was 2.61 ± 0.133 log2 fold change.

B17: consensus (structured_RNA)
RNA: B3 RNA with C29U, C30U, C33U, G35C, G37A, G38A, A39G
Work on B17 yielded a binding signal [2] of 2.7 ± 0.146 log2 fold change.

B18: consensus (structured_RNA)
RNA: B3 RNA with C29U, C30U, C33U, G35A, G37A, G38A, A39G
In the case of B18, the binding signal [2] is reported as 2.53 ± 0.247 log2 fold change.

B19: consensus (structured_RNA)
RNA: B3 RNA with U28C, C29U, C33U, G35U, A39G
With B19 the binding signal [2] was 2.74 ± 0.145 log2 fold change.

B20: consensus (structured_RNA)
RNA: B3 RNA with C29U, C30U, G35C, G37A, G38A
In the case of B20, the binding signal [2] is reported as 2.81 ± 0.12 log2 fold change.

B21: consensus (structured_RNA)
RNA: B3 RNA with C29U, C33U, G35U, G38A, A39G
In the case of B21, the binding signal [2] is reported as 2.54 ± 0.128 log2 fold change.

B22: consensus (structured_RNA)
RNA: B3 RNA with U28C, C29U, C30U, C33U, G35U, G37A, A39G
Binder B22 has a binding signal [2] of 2.7 ± 0.125 log2 fold change.

B23: consensus (structured_RNA)
RNA: B3 RNA with C29U, C33U, G35A, A39G
With B23 the binding signal [2] was 2.44 ± 0.142 log2 fold change.

B24: consensus (structured_RNA)
RNA: B3 RNA with C30U, G37A
For B24, the binding signal [2] was 2.75 ± 0.139 log2 fold change.

B25: consensus (structured_RNA)
RNA: B3 RNA with G35U, A39G
Work on B25 yielded a binding signal [2] of 2.76 ± 0.147 log2 fold change.

B26: consensus (structured_RNA)
RNA: B3 RNA with C29U, C33U, G35U
B26 was tested, and the binding signal [2] was 2.58 ± 0.123 log2 fold change.

B27: consensus (structured_RNA)
RNA: B3 RNA with C29U, C30U, G35U, G37A, G38A
B27 gave a binding signal [2] of 2.59 ± 0.138 log2 fold change.

B28: consensus (structured_RNA)
RNA: B3 RNA with U28C, C29U, C30U, G35U, G37A, A39G
In the case of B28, the binding signal [2] is reported as 2.45 ± 0.137 log2 fold change.

B29: consensus (structured_RNA)
RNA: B3 RNA with C33U, A39G
Work on B29 yielded a binding signal [2] of 2.63 ± 0.152 log2 fold change.

B30: consensus (structured_RNA)
RNA: B3 RNA with C29U, G35A, G38A, A39G
Work on B30 yielded a binding signal [2] of 2.77 ± 0.139 log2 fold change.

B31: consensus (structured_RNA)
RNA: B3 RNA with C30U, C33U, G35C, G37A
In the case of B31, the binding signal [2] is reported as 3.61 ± 0.112 log2 fold change.

B32: consensus (structured_RNA)
RNA: B3 RNA with U28C, C29U, G35U, A39G
B32 gave a binding signal [2] of 2.44 ± 0.146 log2 fold change.
